{
  "source": "patent US11708423B2",
  "about": "“Chimeric engulfment receptor molecules and methods of use” (CERO THERAPEUTICS, INC., priority 2017, dated 2023)",
  "key": {"[1]": {"system": "SCC152 cells", "assay": "Phagocytic activity of tandem expression cassette transduced CD8+ T cells", "type": "cell-based, human", "protocol": "Phagocytic activity of tandem expression cassette transduced CD8+ T cells was detected by co-culturing tandem expression cassette transduced CD8+ T cells with SCC152 cells for 6 hours at a 1:1 ratio. Phagocytic events were visualized and quantified using KEYENCE BZ-X710 fluorescence microscope, 20X objective and hybrid capture software."}, "[2]": {"system": "SCC152 cells", "assay": "Magnitude breadth of phagocytosis by CER-transduced CD4+ T cells", "type": "cell-based, human", "details": "8 hours co-culture with CD8/E7 TCR T cells and SCC152 cells", "protocol": "Various CER-modified CD4+ T cells were also evaluated for breadth of response to determine whether a particular CER confers a broad phagocytic response of low magnitude (e.g., 10% engulfment in 90% of cells) or a less frequent but strong phagocytic response (e.g., 90% engulfment in 10% of cells) in the host cells. CD8+ T cells were transduced with HPV16 E7 specific TCR as described in Example 5. CD4+ T cells were transduced with lentiviral vectors comprising a CER21, CER27, CER104, CER116, or CER117 nucleic acid. Mock-transduced (vector alone) CD4+ T cell were used as control. CD4+/CER+ and CD8+/E7 TCR+ T cells were stained with CELLTRACE violet. […] HPV16 E7 TCR transduced CD8+ T cells and selected CER transduced CD4+ T cells were mixed at a 1:1 ratio and co-cultured with SCC152 cells at a 1:1 ratio for 8 hours. Phagocytosis of target SCC152 cells by CER-transduced CD4+ T cells was analyzed by fluorescence microscopy. […] The horizontal axis represents the % area of CER-transduced CD4+ T cells having engulfment or % area of […]. This measure was rarely above 40% across CER types tested. The vertical axis represents the proportion of CER-transduced CD4+ T cells that were phagocytic. For CER104, about 20% of CER104-transduced CD4+ T cells have more than 10% engulfment. For CER117-transduced CD4+ T cells, less than 10% have more than 10% engulfment."}, "[3]": {"system": "ALK+A549 cells", "assay": "Phagocytosis of ALK inhibitor treated A549 ALK+ cells by CER T cells (fluorescent microscopy)", "type": "cell-based", "details": "12 hours, CD4 T cells", "excerpt": "An ELM4-ALK translocation was introduced into A549 cells. […] CD4 T cells are modified to express CER104 or CER117 and labeled with CELLTRACE Violet. CER117 has a polypeptide sequence set forth in SEQ ID NO:144 and comprises a Tim4 binding domain, a Tim4 transmembrane domain, and an engulfment signaling domain comprising a primary engulfment signaling domain comprising a TLR8 signaling domain and a secondary engulfment signaling domain comprising a TRAF6 signaling domain. The ALK+A549 cells were then co-cultured with CER104- or CER117-expressing CD4+ T cells or Mock-transduced (vector only) T cells for 12 hours and images were obtained by fluorescent microscopy at 40× magnification (FIGS. 62A-E). White arrows indicate exemplary phagocytic events (pH rodo red cell targets within CELLTRACE Violet labeled CD4+ T cells).\nCER123- and CER126-transduced CD4+ and CD8+ T cells were labeled with CELLTRACE Violet and co-cultured with the A549 ALK-positive cells. Co-cultured cells were imaged by fluorescent microscopy at 63× magnification after 12 hours (FIGS. 63A-F). White arrows indicate exemplary phagocytic events (pHrodo red targets within CELLTRACE Violet-labeled CD4 T cells).\nPhagocytosis of Alectinib-treated ALK+A549 cells by CER-expressing T cells was also quantified. […] Bar graph in FIG. 64A represents quantification of percentage phagocytosis calculated as ((number of phagocytic target events)/(total number of effector cells))*100. Events were calculated from fluorescent 3×3 stitched images at 40×resolution after 12 hours of co-culture. Bar graph in FIG. 64B represents quantification of adjusted phagocytic index calculated as (median area ratio of target events in effector cells*phagocytosis). Events calculated from fluorescent 3×3 stitched images at 40×resolution after 12 hours of co-culture.\nCER21−, CER27−, CER30−, CER108−, CER110−, CER112−, CER120−, CER123−, CER124−, CER126−, CER127−, or CER104-transduced CD4+ T cells were co-cultured with Alectinib-treated A549 cells at a 1:1 ratio for 12 hours. Phagocytic events were calculated from 3×3 stitched fluorescent microscopy images at 40X resolution. […] Images were obtained after 12 hours of co-culture. Yellow triangles indicate exemplary phagocytic events (pHrodo red targets within CELLTRACE violet labeled CD4+ T cells).\nA time course study of phagocytic uptake of tumor cells by CER-transduced T cells was performed. CD4+ T cells were transduced with a lentiviral vector comprising CER122 nucleic acid. Mock-transduced (vector only) CD4+ T cells were used as control. CER122-transduced T cells were labeled with CELLTRACE violet and co-cultured with pHrodo red labeled A549 ALK+ lung adenocarcinoma cells. Fluorescent microscopy images were obtained at 4, 8, and 16 hours co-culture (FIG. 72C), and % phagocytosis (FIG. 72A) and phagocytic index (FIG. 72B) were calculated."}, "[4]": {"system": "CER-transduced CD4+ T cells", "assay": "Mass cytometry (CyTOF) with viSNE marker analysis of CER-transduced CD4+ T cells", "type": "cell-based, human", "details": "CD4+ T cells after co-culture with E7 TCR CD8+ T cells and SCC152 cells", "excerpt": "CD4+ T cells were transduced with lentiviral vector comprising CER104, CER116, or CER117 nucleic acid. CER104 (SEQ ID NO:133) comprises a Tim4 binding domain, Tim4 transmembrane domain, and an engulfment signaling domain comprising a primary engulfment signaling domain comprising a TLR8 signaling domain and a secondary engulfment signaling domain comprising a DAP12 signaling domain. CER116 (SEQ ID NO:143) comprises a Tim4 binding domain, Tim4 transmembrane domain, and an engulfment signaling domain comprising a primary engulfment signaling domain comprising a TRAF6 signaling domain and a secondary engulfment signaling domain comprising a TLR8 signaling domain. CER117 (SEQ ID NO:144) comprises a Tim4 binding domain, Tim4 transmembrane domain, and an engulfment signaling domain comprising a primary engulfment signaling domain comprising a TLR8 signaling domain and a secondary engulfment signaling domain comprising a TRAF6 signaling domain. CER-transduced CD4+ T cells were co-cultured with E7 TCR-transduced CD8+ T cells and HPV+SCC152 target cells and interrogated by mass cytometry (CyTOF) with viSNE for visualization of high dimensional single cell data (FIGS. 82-84). Intact CER-transduced CD4+ T cells are shown in plots displaying tSNE1 (horizontal) and tSNE2 (vertical) axes. 27 intracellular markers were used for the viSNE analysis. Each dot represents a single cell. […] Red represents high expression and blue represents low expression for each marker. Populations of CD4^+ T cells were generated using a clustering algorithm from all 27 markers and overlaid onto the viSNE map. […] Populations of CD4^+ T cells were generated using a clustering algorithm from all 18 markers and overlaid onto the viSNE map (FIG. 83A). […] Color plots by 18 intracellular markers (CD28, CCR7, CD45RA, PD1, CD127, Perforin, CD49d, CD85j, CD38, CD27, Granzyme B, CD57, CD25, CD69, CD154, CD56, HLA-DR, and TCRγδ) show the phenotype across viSNE ‘islands’ (FIG. 83B). Red represents high expression and blue represents low expression for each marker. Highlighted region with arrow indicates cells expressing T cell activation marker CD69. Populations of CD4^+ T cells were generated using a clustering algorithm from 18 intracellular markers (CD28, CCR7, CD45RA, PD1, CD127, Perforin, CD49d, CD85j, CD38, CD27, Granzyme B, CD57, CD25, CD69, CD154, CD56, HLA-DR, and TCRγ6) and overlaid onto the viSNE map. […] Color plots by the 18 intracellular markers show the phenotype across viSNE ‘islands’ (FIG. 84B). Red represents high expression and blue represents low expression for each marker. Highlighted region with arrow indicates cells expressing the naïve T cell marker CD45RA."}},
  "data": [
    {"molecule": "CER31−HPV16 E7 TCR: tandem expression cassette: CER31, T2A peptide, HPV16 E7 specific TCR; SEQ ID NO:170 (protein, CER31_T2A_HPV16_E7_TCR tandem cassette) MSKGLLLLWLVTELWWLYLTPAASEDTIIGFLGQPVTLPCHYLSWSQSRNSMCWGKGSCPNSKCNAELLRTDGTRIISRKSTKYTLLGKVQFGEVSLTISNTNRGDSGVYCCRIEVPGWFNDVKKNVRLELRRATTTKKPTTTTRPTTTPYVTTTTPELLPTTVMTTSVLPTTTPPQTLATTAFSTAVTTCPSTTPGSFSQETTKGSAFTTESETLPASNHSQRSMMTISTDIAVLRPTGSNPGILPSTSQLTTQKTTLTTSESLQKTTKSHQINSRQTILIIACCVGFVLMVLLFLAFLMESSKKMDSPGALQTNPPLKLHTDRSAGTPVFVPEQGGYKEKFVKTVEDKYKCEKCHLVLCSPKQTECGHRFCESCMAALLSSSSPKCTACQESIVKDKVFKDNCCKREILALQIYCRNESRGCAEQLMLGHLLVHLKNDCHFEELPCVRPDCKEKVLRKDLRDHVEKACKYREATCSHCKSQVPMIALQKHEDTDCPCVVVSCPHKCSVQTLLRSELSAHLSECVNAPSTCSFKRYGCVFQGTNQQIKAHEASSAVQHVNLLKEWSNSLEKKVLEGGGEGRGSLLTCGDVEENPGPMAPGLLCWALLCLLGAGLVDAGVTQSPTHLIKTRGQQVTLRCSPKSGHDTVSWYQQALGQGPQFIFQYYEEEERQRGNFPDRFSGHQFPNYSSELNVNALLLGDSALYLCASSLGWRGGRYNEQFFGPGTRLTVLEDLRNVTPPKVSLFEPSKAEIANKQKATLVCLARGFFPDHVELSWWVNGKEVHSGVCTDPQAYKESNYSYCLSSRLRVSATFWHNPRNHFRCQVQFHGLSEEDKWPEGSPKPVTQNISAEAWGRADCGITSASYQQGVLSATILYEILLGKATLYAVLVSTLVVMAMVKRKNSRAKRSGSGATNFSLLKQAGDVEENPGPMWGVFLLYVSMKMGGTTGQNIDQPTEMTATEGAIVQINCTYQTSGFNGLFWYQQHAGEAPTFLSYNVLDGLEEKGRFSSFLSRSKGYSYLLLKELQMKDSASYLCASVDGNNRLAFGKGNQVVVIPNIQNPEPAVYQLKDPRSQDSTLCLFTDFDSQINVPKTMESGTFITDKCVLDMKAMDSKSNGAIAWSNQTSFTCQDIFKETNATYPSSDVPCDATLTEKSFETDMNLNFQNLLVIVLRILLLKVAGFNLLMTLRLWSS", "values": [
      {"measurement": "phagocytosis of SCC152 cells", "setting": "[1]; CD8+ T cells, 6 hours, 1:1 ratio", "value": "capable of phagocytosing SCC152 cells"},
      {"measurement": "dependence of engulfment of SCC152 cells on Racl", "setting": "[1]; Racl inhibitor NSC23766 (50 μM), data not shown", "value": "Racl-dependent manner"}
    ]},
    {"molecule": "CER117: Tim4 binding and transmembrane domains, TLR8 primary and TRAF6 secondary signaling domains; SEQ ID NO:144 (protein, CER117 protein) MSKGLLLLWLVTELWWLYLTPAASEDTIIGFLGQPVTLPCHYLSWSQSRNSMCWGKGSCPNSKCNAELLRTDGTRIISRKSTKYTLLGKVQFGEVSLTISNTNRGDSGVYCCRIEVPGWFNDVKKNVRLELRRATTTKKPTTTTRPTTTPYVTTTTPELLPTTVMTTSVLPTTTPPQTLATTAFSTAVTTCPSTTPGSFSQETTKGSAFTTESETLPASNHSQRSMMTISTDIAVLRPTGSNPGILPSTSQLTTQKTTLTTSESLQKTTKSHQINSRQTILIIACCVGFVLMVLLFLAFLHHLFYWDVWFIYNVCLAKVKGYRSLSTSQTFYDAYISYDTKDASVTDWVINELRYHLEESRDKNVLLCLEERDWDPGLAIIDNLMQSINQSKKTVFVLTKKYAKSWNFKTAFYLALQRLMDENMDVIIFILLEPVLQHSQYLRLRQRICKSSILQWPDNPKAEGLFWQTLRNVVLTENDSRYNNMYVDSIKQYMSLLNCENSCGSSQSESDCCVAMASSCSAVTKDDSVGGTASTGNLSSSFMEEIQGYDVEFDPPLESKYECPICLMALREAVQTPCGHRFCKACIIKSIRDAGHKCPVDNEILLENQLFPDNFAKREILSLMVKCPNEGCLHKMELRHLEDHQAHCEFALMDCPQCQRPFQKFHINIHILKDCPRRQVSCDNCAASMAFEDKEIHDQNCPLANVICEYCNTILIREQMPNHYDLDCPTAPIPCTFSTFGCHEKMQRNHLARHLQENTQSHMRMLA", "values": [
      {"measurement": "proportion of CER-transduced CD4+ T cells that have more than 10% engulfment", "setting": "[2]", "value": "less than 10%"},
      {"measurement": "phagocytosis of A549 cells", "setting": "[3]; 1 μM Alectinib", "value": "phagocytosed A549 cells"},
      {"measurement": "phagocytosis of A549 cells", "setting": "[3]; 1 μM Crizotinib", "value": "phagocytosed A549 cells"},
      {"measurement": "viSNE islands expressing intracellular marker IFNγ", "setting": "[4]", "value": "enrichment of islands expressing the intracellular marker IFNγ"}
    ]}
  ]
}
